According to patent US20120282279A1 (COVX TECHNOLOGIES IRELAND, published 2012):

Biological target: FGF21 cell surface receptor composed of FGFR1c and β-Klotho (on the cells of the bioactivity assays) (UniProt P16092 22-822; Q99N32 1-1043, limits assumed)
Test: cell-based or functional assay

FGF21 cell surface receptor composed of FGFR1c and β-Klotho (on the cells of the bioactivity assays), sequence (P16092 22-822 limits assumed, chain 1 of 2): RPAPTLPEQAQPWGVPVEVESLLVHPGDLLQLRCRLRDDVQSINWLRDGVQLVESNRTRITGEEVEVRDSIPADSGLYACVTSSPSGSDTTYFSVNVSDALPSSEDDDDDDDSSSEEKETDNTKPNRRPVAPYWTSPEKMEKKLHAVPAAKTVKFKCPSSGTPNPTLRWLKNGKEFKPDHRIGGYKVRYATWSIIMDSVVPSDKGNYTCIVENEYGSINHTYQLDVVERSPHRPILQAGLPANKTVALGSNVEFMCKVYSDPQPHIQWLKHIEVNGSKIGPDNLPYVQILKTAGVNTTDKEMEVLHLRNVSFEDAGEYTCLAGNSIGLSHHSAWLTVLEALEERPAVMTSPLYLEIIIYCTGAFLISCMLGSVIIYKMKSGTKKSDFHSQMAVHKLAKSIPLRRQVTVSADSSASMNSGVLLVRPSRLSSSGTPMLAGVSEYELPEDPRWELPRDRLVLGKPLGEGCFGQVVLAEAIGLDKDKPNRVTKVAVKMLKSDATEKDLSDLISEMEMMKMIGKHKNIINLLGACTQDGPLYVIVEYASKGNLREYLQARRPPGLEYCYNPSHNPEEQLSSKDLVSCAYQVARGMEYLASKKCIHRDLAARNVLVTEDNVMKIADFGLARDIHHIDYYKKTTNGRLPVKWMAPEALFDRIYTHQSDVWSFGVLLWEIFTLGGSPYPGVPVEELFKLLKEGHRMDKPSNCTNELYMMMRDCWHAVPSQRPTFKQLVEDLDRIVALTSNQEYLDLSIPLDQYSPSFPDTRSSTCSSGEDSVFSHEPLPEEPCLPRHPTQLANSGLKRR
FGF21 cell surface receptor composed of FGFR1c and β-Klotho (on the cells of the bioactivity assays), sequence (Q99N32 whole entry, chain 2 of 2): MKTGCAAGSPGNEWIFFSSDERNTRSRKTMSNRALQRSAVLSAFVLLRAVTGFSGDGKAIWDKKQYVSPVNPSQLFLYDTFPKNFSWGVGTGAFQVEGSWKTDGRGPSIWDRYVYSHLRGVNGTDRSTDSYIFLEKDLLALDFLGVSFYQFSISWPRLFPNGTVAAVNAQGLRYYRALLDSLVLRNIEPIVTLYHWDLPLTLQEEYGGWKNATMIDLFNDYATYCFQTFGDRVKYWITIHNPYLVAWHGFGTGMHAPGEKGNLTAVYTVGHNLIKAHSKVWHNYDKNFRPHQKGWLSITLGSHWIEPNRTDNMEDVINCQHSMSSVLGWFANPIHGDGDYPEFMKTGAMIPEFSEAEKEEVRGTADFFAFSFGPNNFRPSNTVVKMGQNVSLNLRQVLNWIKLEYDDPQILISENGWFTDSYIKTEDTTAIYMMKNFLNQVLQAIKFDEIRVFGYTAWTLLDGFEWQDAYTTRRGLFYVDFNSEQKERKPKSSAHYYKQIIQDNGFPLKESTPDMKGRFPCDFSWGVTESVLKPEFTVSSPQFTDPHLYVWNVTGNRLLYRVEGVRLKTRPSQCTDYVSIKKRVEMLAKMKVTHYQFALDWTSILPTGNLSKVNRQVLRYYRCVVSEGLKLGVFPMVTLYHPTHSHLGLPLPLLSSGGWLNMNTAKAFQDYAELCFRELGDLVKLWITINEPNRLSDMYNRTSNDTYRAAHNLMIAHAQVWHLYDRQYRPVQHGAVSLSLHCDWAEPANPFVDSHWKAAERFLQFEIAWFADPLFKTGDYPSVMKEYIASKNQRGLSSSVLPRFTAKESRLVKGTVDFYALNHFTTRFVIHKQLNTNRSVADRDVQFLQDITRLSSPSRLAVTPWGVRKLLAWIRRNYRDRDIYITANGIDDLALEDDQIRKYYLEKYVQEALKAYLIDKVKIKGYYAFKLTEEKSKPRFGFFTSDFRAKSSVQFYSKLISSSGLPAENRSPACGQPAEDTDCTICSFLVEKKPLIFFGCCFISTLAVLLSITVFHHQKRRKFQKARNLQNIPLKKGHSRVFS

Glut1 Taqman unconjugated Protein EC50: 2.3 nM
B1: FGF21ΔH (ligand)
chain: PIPDSSPLLQFGGQVRQRYLYTDDAQQTEAHLEIREDGTVGGAADQSPESLLQLKALKPGVIQILGVKTSRFLCQRPDGALYGSLHFDPEACSFRELLLEDGYNVYQSEAHGLPLHLPGNKSPHRDPAPRGPARFLPLPGLPPAPPEPPGILAPQPPDVGSSDPLSMVGPSQGRSPSYAS
